Reference: patent publication US20190170753A1 (ICAHN SCHOOL OF MEDICINE AT MOUNT SINAI, published 2019)

Assays:
Assay in all cases: peptide EIA, 2 ug/mL IgG;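 further: purified mouse IgG binding to individually well-coated synthetic peptides, detected with peroxidase anti-mouse IgG Fc and o-phenylenediamine, IgG incubated at least 1 h at room temperature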
[1] = target: T1, HCV core peptide 43 (hepatitis C virus, N-terminal biotin; C-terminal amide)
T1 construct: range 85-99
Procedure: (§1) The coated plates were kept dry in a sealed foil pouch and stored at <10 degrees C. until ready for use. A peptide coated plate for each test antibody was blocked using 3% BSA in PBS with 0.5% Tween 20. The blocked plates were washed with distilled water and a 2 ug/mL solution of purified IgG from each test sample diluted in BSA block solution was added to each peptide coated well of the blocked plate and allowed to incubate at room temperature for at least one hour. Following incubation the plates were washed with distilled water. A 200 ng/mL solution of peroxidase labeled F(ab′)2 fragment goat anti-mouse IgG Fc fragment specific (Jackson Immunoresearch) in BSA block solution was added to all wells and incubated at room temperature for 30 minutes. The plates were washed with distilled water and o-phenylenediamine substrate was used as the chromagen to generate signal. Plates were read at 492 nm and the results were analyzed.

[2] = target: HCV core peptide 47 (hepatitis C virus, N-terminal biotin; C-terminal amide)
Procedure: as §1

[3] = target: T2, HCV core peptide 82 (hepatitis C virus, N-terminal biotin; C-terminal amide)
T2 construct: range 163-177
Procedure: as §1

[4] = target: T3, HCV core peptide 41 (hepatitis C virus, N-terminal biotin; C-terminal amide)
T3 construct: range 81-95
Procedure: as §1

[5] = target: T4, HCV core peptide 2 (hepatitis C virus, N-terminal biotin; C-terminal amide)
T4 construct: range 3-17
Procedure: as §1

[6] = target: T5, HCV core peptide 9 (hepatitis C virus, N-terminal biotin; C-terminal amide)
T5 construct: range 17-31
Procedure: as §1

[7] = target: HCV core peptide 63 (hepatitis C virus, N-terminal biotin; C-terminal amide)
Procedure: as §1

[8] = target: T6, HCV core peptide 6 (hepatitis C virus, N-terminal biotin; C-terminal amide)
T6 construct: range 11-25
Procedure: as §1

[9] = target: HCV core peptide 60 (hepatitis C virus, N-terminal biotin; C-terminal amide)
Procedure: as §1

[10] = target: T7, HCV core peptide 17 (hepatitis C virus, N-terminal biotin; C-terminal amide)
T7 construct: range 33-47
Procedure: as §1

[11] = target: T8, HCV core peptide 13 (hepatitis C virus, N-terminal biotin; C-terminal amide)
T8 construct: range 25-39
Procedure: as §1

[12] = target: HCV core peptide 85 (hepatitis C virus, N-terminal biotin; C-terminal amide)
Procedure: as §1

[13] = target: T9, HCV core peptide 38 (hepatitis C virus, N-terminal biotin; C-terminal amide)
T9 construct: range 75-89
Procedure: as §1

[14] = target: T10, HCV core peptide 11 (hepatitis C virus, N-terminal biotin; C-terminal amide)
T10 construct: range 21-35
Procedure: as §1

[15] = target: HCV core peptide 57 (hepatitis C virus, N-terminal biotin; C-terminal amide)
Procedure: as §1

[16] = target: T11, HCV core peptide 16 (hepatitis C virus, N-terminal biotin; C-terminal amide)
T11 construct: range 31-45
Procedure: as §1

[17] = target: T12, HCV core peptide 51 (hepatitis C virus, HELM PEPTIDE1{[O=C1N[C@H]2[C@H](CS[C@H]2CCCCC(=O)[*:2])N1].S.G.S.G.R.G.S.R.P.S.W.G.P.T.D.P.R.R.R.[am]}$$$$V2.0; SMILES …)
T12 peptide: SGSGRGSRPSWGPTDPRRR
Procedure: as §1

[18] = target: T13, HCV core peptide 79 (hepatitis C virus, N-terminal biotin; C-terminal amide)
T13 construct: range 157-171
Procedure: as §1

[19] = target: HCV core peptide 77 (hepatitis C virus, N-terminal biotin; C-terminal amide)
Procedure: as §1

[20] = target: HCV core peptide 86 (hepatitis C virus, N-terminal biotin; C-terminal amide)
Procedure: as §1

[21] = target: HCV core peptide 46 (hepatitis C virus, N-terminal biotin; C-terminal amide)
Procedure: as §1

[22] = target: T14, HCV core peptide 50 (hepatitis C virus, HELM PEPTIDE1{[O=C1N[C@H]2[C@H](CS[C@H]2CCCCC(=O)[*:2])N1].S.G.S.G.S.P.R.G.S.R.P.S.W.G.P.T.D.P.R.[am]}$$$$V2.0; SMILES …)
T14 construct: also called aa 99-113
T14 peptide: SGSGSPRGSRPSWGPTDPR
Procedure: as §1

[23] = target: HCV core peptide 87 (hepatitis C virus, N-terminal biotin; C-terminal amide)
Procedure: as §1

[24] = target: T15, HCV core peptide 36 (hepatitis C virus, N-terminal biotin; C-terminal amide)
T15 construct: range 71-85
Procedure: as §1

[25] = target: T16, HCV core peptide 28 (hepatitis C virus, N-terminal biotin; C-terminal amide)
T16 construct: range 55-69
Procedure: as §1

[26] = target: HCV core peptide 78 (hepatitis C virus, N-terminal biotin; C-terminal amide)
Procedure: as §1

[27] = target: HCV core peptide 56 (hepatitis C virus, N-terminal biotin; C-terminal amide)
Procedure: as §1

[28] = target: T17, HCV core peptide 15 (hepatitis C virus, N-terminal biotin; C-terminal amide)
T17 construct: range 29-43
Procedure: as §1

[29] = target: T18, HCV core peptide 14 (hepatitis C virus, N-terminal biotin; C-terminal amide)
T18 construct: range 27-41
Procedure: as §1

[30] = target: T19, HCV core peptide 10 (hepatitis C virus, N-terminal biotin; C-terminal amide)
T19 construct: range 19-33
Procedure: as §1

[31] = target: T20, HCV core peptide 25 (hepatitis C virus, N-terminal biotin; C-terminal amide)
T20 construct: range 49-63
Procedure: as §1

[32] = target: T21, HCV core peptide 61 (hepatitis C virus, N-terminal biotin; C-terminal amide)
T21 construct: range 121-135
Procedure: as §1

[33] = target: HCV core peptide 88 (hepatitis C virus, N-terminal biotin; C-terminal amide)
Procedure: as §1

B1: Neo4 mouse monoclonal antibody (antibody, V domains shown)
VH: QIQLKESGPAVIKPSQSLSLTCIVSGFSITSSVYCWQWIRQPPGKGLEWMGRICYDGSVDYSPSITSRGTISRDTSLNKVFFQLSSVTNEDTAMYYCSRENHIDYYDTTYPSFDVWGAGTTVTVSS
VL: DIVLTQSPASLIVSLGQRATISCRASKSVNEYGYTYMHWYQQKPGLPPKLLIYLASNLDSGVPARFSGSGSGTDFTLNIHPVEEEDAATYYCQHSRELPYTFGGGTKLEIKR
notes: Mouse hybridoma antibody, isotype IgG1, purified with Protein G; also called HCV Neo4
OD (A492 nm) [1]: 0.05 OD
OD (A492 nm) [2]: 0.05 OD
OD (A492 nm) [3]: 0.04 OD
OD (A492 nm) [4]: 0.04 OD
OD (A492 nm) [5]: 0.06 OD
OD (A492 nm) [6]: 0.05 OD
OD (A492 nm) [7]: 0.04 OD
OD (A492 nm) [8]: 0.06 OD
OD (A492 nm) [9]: 0.06 OD
OD (A492 nm) [10]: 0.04 OD
OD (A492 nm) [11]: 0.05 OD
OD (A492 nm) [12]: 0.05 OD
OD (A492 nm) [13]: 0.05 OD
OD (A492 nm) [14]: 0.05 OD
OD (A492 nm) [15]: 0.05 OD
OD (A492 nm) [16]: 0.06 OD
OD (A492 nm) [17]: 0.96 OD
OD (A492 nm) [18]: 0.05 OD
OD (A492 nm) [19]: 0.05 OD
OD (A492 nm) [20]: 0.05 OD
OD (A492 nm) [21]: 0.06 OD
OD (A492 nm) [22]: 1.03 OD
OD (A492 nm) [23]: 0.05 OD
OD (A492 nm) [24]: 0.05 OD
OD (A492 nm) [25]: 0.04 OD
OD (A492 nm) [26]: 0.06 OD
OD (A492 nm) [27]: 0.04 OD
OD (A492 nm) [28]: 0.06 OD
OD (A492 nm) [29]: 0.06 OD
OD (A492 nm) [30]: 0.05 OD
OD (A492 nm) [31]: 0.04 OD
OD (A492 nm) [32]: 0.05 OD
OD (A492 nm) [33]: 0.05 OD
